This is an account of results in PMC9535766, “Structural insights into the assembly and activation of the IL‐27 signaling complex” (EMBO Reports, 2022).

To fix the notation:
T1: mouse p28 (IL‐27p28), alone (mouse, UniProt Q8K3I6 29-234)
T1 construct: IL-27 p28 subunit, mouse; source: recombinantly produced
T1 sequence (looked up): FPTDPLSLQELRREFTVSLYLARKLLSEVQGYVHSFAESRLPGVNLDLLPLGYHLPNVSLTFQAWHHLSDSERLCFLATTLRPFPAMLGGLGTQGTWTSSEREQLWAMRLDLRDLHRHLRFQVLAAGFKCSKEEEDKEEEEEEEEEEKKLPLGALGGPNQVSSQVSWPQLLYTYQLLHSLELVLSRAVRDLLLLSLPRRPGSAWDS

T2: biotinylated mouse IL‐27Rα (amino acids 28–224) (mouse, UniProt O70394 28-224, N‐terminal biotinylated in vitro using EZ‐Link Sulfo‐NHS‐SS‐Biotin at pH 6.5)
T2 chain: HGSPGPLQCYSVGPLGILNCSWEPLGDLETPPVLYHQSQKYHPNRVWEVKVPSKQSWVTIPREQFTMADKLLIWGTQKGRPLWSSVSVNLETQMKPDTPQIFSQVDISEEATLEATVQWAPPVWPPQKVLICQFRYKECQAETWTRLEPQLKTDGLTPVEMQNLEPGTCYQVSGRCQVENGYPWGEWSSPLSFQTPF

T3: C‐terminal biotinylated mouse GP130 with biotin acceptor peptide (mouse, UniProt Q00560 23-319, biotin on the biotin acceptor peptide (BirA ligase))
T3 chain: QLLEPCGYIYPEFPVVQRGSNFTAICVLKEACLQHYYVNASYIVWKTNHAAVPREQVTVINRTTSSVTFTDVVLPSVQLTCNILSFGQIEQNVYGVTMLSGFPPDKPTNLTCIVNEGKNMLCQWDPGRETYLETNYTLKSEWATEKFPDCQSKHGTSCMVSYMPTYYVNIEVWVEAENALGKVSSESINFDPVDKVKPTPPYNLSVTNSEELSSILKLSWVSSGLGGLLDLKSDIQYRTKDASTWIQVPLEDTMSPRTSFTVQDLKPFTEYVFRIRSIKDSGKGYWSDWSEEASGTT

T4: C‐terminal biotinylated mouse GP130 with biotin acceptor peptide (mouse, UniProt Q00560 23-319, biotin on the biotin acceptor peptide (BirA ligase))
T4 construct: GP130, murine, amino acids 23–319; also called biotinylated GP130; source: insect cells (pAcGP67‐A vector), purified; biotinylated with BirA ligase
T4 sequence (looked up): T3 chain

B1: biotinylated mouse IL‐27Rα (amino acids 28–224) (receptor, UniProt O70394 28-224, looked up)
chain: T2 chain
modifications: N‐terminal biotinylated in vitro using EZ‐Link Sulfo‐NHS‐SS‐Biotin at pH 6.5
notes: IL-27 receptor alpha, murine, amino acids 28–224; Same construct as m2, chemically biotinylated for capture on the streptavidin chip; also called biotinylated IL‐27Rα; source: Trichoplusia ni (High Five) cells, baculovirus, secreted; purified (Ni-NTA, SEC); biotinylated in vitro
B2: murine IL‐27, linker‐connected single‐chain variant (p28 + EBI3) (ligand)
chain: GSYTETALVALSQPRVQCHASRYPVAVDCSWTPLQAPNSTRSTSFIATYRLGVATQQQSQPCLQRSPQASRCTIPDVHLFSTVPYMLNVTAVHPGGASSSLLAFVAERIIKPDPPEGVRLRTAGQRLQVLWHPPASWPFPDIFSLKYRLRYRRRGASHFRQVGPIEATTFTLRNSKPHAKYCIQVSAQDLTDYGKPSDWSLPGQVESAPHKPRGGGGSGGGGSVESGENLYFQGFPTDPLSLQELRREFTVSLYLARKLLSEVQGYVHSFAESRLPGVNLDLLPLGYHLPNVSLTFQAWHHLSDSERLCFLATTLRPFPAMLGGLGTQGTWTSSEREQLWAMRLDLRDLHRHLRFQVLAAGFKCSKEEEDKEEEEEEEEEEKKLPLGALGGPNQVSSQVSWPQLLYTYQLLHSLELVLSRAVRDLLLLSLPRRPGSAWDS

In experiment [1] the target is T1, mouse p28 (IL‐27p28), alone. Briefly: SPR; Biacore T100; biotinylated receptor immobilised on SA chip (~100 RU); p28 flowed, 1:2 dilution series from 20 μM; 25°C; 10 mM HEPES, 150 mM NaCl, 0.05% TWEEN‐20, pH 7.2, 0.5% BSA; equilibrium analysis. The settings on record: both partners purified. On the technique in general: Surface plasmon resonance follows binding to a sensor surface in real time, without labels.

Experiment [2] has as its target T2, biotinylated mouse IL‐27Rα (amino acids …). Briefly: SPR.
Experiment [3] concerns the target T3, C‐terminal biotinylated mouse GP130 …. Briefly: SPR.
Experiment [4] concerns the target B1. Briefly: SPR; Biacore T100; biotinylated receptor immobilised on SA chip (~100 RU); IL‐27 flowed, 1:3 dilution series from 100 nM, 30 μl/min; 25°C; 10 mM HEPES, 150 mM NaCl, 0.05% TWEEN‐20, pH 7.2, 0.5% BSA; kinetic 1:1 fit. The following applies: both partners purified.
In experiment [5] the target is T4, C‐terminal biotinylated mouse GP130 …. Described as above. The following applies: both partners purified.

By Kd is commonly meant the equilibrium constant for the complex coming apart. A lower Kd goes with higher affinity. B1 came in with a Kd in experiment [1] of 1700 nM. This lies in the single-digit micromolar range.
A word on the koff: it is the rate constant with which the complex falls apart. A high value points to a short-lived complex. Turning to B2, the koff amounted to 0.001 s⁻¹ in experiment [2] and 0.02 s⁻¹ in experiment [3]. The Kd in experiment [4] stood at 0.28 nM; in experiment [5], 2.1 nM.
